Results published in patent US20230235012A1 (ALPINE IMMUNE SCIENCES, published 2023).

Assays:
[1] = biological target: T1, human CD28, full-length, expressed on transfected Expi293 cells (human, UniProt P10747 19-220); assay: flow cytometry, 100 nM, Expi293 cells with human CD28
T1 construct: whole, on cells

[2] = biological target: T2, human CTLA-4, full-length, expressed on transfected Expi293 cells (human, UniProt P16410 36-223); assay: flow cytometry, 100 nM, Expi293 cells with human CTLA-4
T2 construct: whole, on cells
T2 sequence (P16410 36-223): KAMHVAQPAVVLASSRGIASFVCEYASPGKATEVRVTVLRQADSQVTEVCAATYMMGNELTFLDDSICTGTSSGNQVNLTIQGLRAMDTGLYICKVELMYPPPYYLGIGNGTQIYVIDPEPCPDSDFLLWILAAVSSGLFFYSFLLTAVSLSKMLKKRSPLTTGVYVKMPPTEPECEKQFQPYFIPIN

B1: variant ICOSL IgV-Fc fusion N52A/N57H/Q100S (Fc fusion)
chain: DTQEKEVRAMVGSDVELSCACPEGSRFDLNDVYVYWQTSESKTVVTYHIPQASSLEHVDSRYRNRALMSPAGMLRGDFSLRLFNVTPQDEQKFHCLVLSSSLGFQEVLSVEVTLHVAANFSVGSGGGGSEPKSSDKTHTCPPCPAPEAEGAPSVFLFPPKPKDTLMISRTPEVTCVVVDVSHEDPEVKFNWYVDGVEVHNAKTKPREEQYNSTYRVVSVLTVLHQDWLNGKEYKCKVSNKALPAPIEKTISKAKGQPREPQVYTLPPSREEMTKNQVSLTCLVKGFYPSDIAVEWESNGQPENNYKTTPPVLDSDGSFFLYSKLTVDKSRWQQGNVFSCSVMHEALHNHYTQKSLSLSPG
Work on B1 yielded an MFI [1] of 159000 MFI and an MFI [2] of 321000 MFI.

B2: variant ICOSL IgV-Fc fusion N52D/N57A/Q100A (Fc fusion)
chain: DTQEKEVRAMVGSDVELSCACPEGSRFDLNDVYVYWQTSESKTVVTYHIPQDSSLEAVDSRYRNRALMSPAGMLRGDFSLRLFNVTPQDEQKFHCLVLSASLGFQEVLSVEVTLHVAANFSVGSGGGGSEPKSSDKTHTCPPCPAPEAEGAPSVFLFPPKPKDTLMISRTPEVTCVVVDVSHEDPEVKFNWYVDGVEVHNAKTKPREEQYNSTYRVVSVLTVLHQDWLNGKEYKCKVSNKALPAPIEKTISKAKGQPREPQVYTLPPSREEMTKNQVSLTCLVKGFYPSDIAVEWESNGQPENNYKTTPPVLDSDGSFFLYSKLTVDKSRWQQGNVFSCSVMHEALHNHYTQKSLSLSPG
In the case of B2, the MFI [1] is reported as 138000 MFI and the MFI [2] is reported as 340000 MFI.

B3: variant ICOSL IgV-Fc fusion N52D/Q100S (Fc fusion)
chain: DTQEKEVRAMVGSDVELSCACPEGSRFDLNDVYVYWQTSESKTVVTYHIPQDSSLENVDSRYRNRALMSPAGMLRGDFSLRLFNVTPQDEQKFHCLVLSSSLGFQEVLSVEVTLHVAANFSVGSGGGGSEPKSSDKTHTCPPCPAPEAEGAPSVFLFPPKPKDTLMISRTPEVTCVVVDVSHEDPEVKFNWYVDGVEVHNAKTKPREEQYNSTYRVVSVLTVLHQDWLNGKEYKCKVSNKALPAPIEKTISKAKGQPREPQVYTLPPSREEMTKNQVSLTCLVKGFYPSDIAVEWESNGQPENNYKTTPPVLDSDGSFFLYSKLTVDKSRWQQGNVFSCSVMHEALHNHYTQKSLSLSPG
With B3 the MFI [1] was 95700 MFI and the MFI [2] was 333000 MFI.

B4: variant ICOSL IgV-Fc fusion N52G/N57P/Q100D (Fc fusion)
chain: DTQEKEVRAMVGSDVELSCACPEGSRFDLNDVYVYWQTSESKTVVTYHIPQGSSLEPVDSRYRNRALMSPAGMLRGDFSLRLFNVTPQDEQKFHCLVLSDSLGFQEVLSVEVTLHVAANFSVGSGGGGSEPKSSDKTHTCPPCPAPEAEGAPSVFLFPPKPKDTLMISRTPEVTCVVVDVSHEDPEVKFNWYVDGVEVHNAKTKPREEQYNSTYRVVSVLTVLHQDWLNGKEYKCKVSNKALPAPIEKTISKAKGQPREPQVYTLPPSREEMTKNQVSLTCLVKGFYPSDIAVEWESNGQPENNYKTTPPVLDSDGSFFLYSKLTVDKSRWQQGNVFSCSVMHEALHNHYTQKSLSLSPG
B4 gave an MFI [1] of 5720 MFI and an MFI [2] of 10200 MFI.

B5: variant ICOSL IgV-Fc fusion N52P/N57P (Fc fusion)
chain: DTQEKEVRAMVGSDVELSCACPEGSRFDLNDVYVYWQTSESKTVVTYHIPQPSSLEPVDSRYRNRALMSPAGMLRGDFSLRLFNVTPQDEQKFHCLVLSQSLGFQEVLSVEVTLHVAANFSVGSGGGGSEPKSSDKTHTCPPCPAPEAEGAPSVFLFPPKPKDTLMISRTPEVTCVVVDVSHEDPEVKFNWYVDGVEVHNAKTKPREEQYNSTYRVVSVLTVLHQDWLNGKEYKCKVSNKALPAPIEKTISKAKGQPREPQVYTLPPSREEMTKNQVSLTCLVKGFYPSDIAVEWESNGQPENNYKTTPPVLDSDGSFFLYSKLTVDKSRWQQGNVFSCSVMHEALHNHYTQKSLSLSPG
B5 gave an MFI [1] of 21000 MFI.

B6: variant ICOSL IgV-Fc fusion N52R/N57F/Q100N (Fc fusion)
chain: DTQEKEVRAMVGSDVELSCACPEGSRFDLNDVYVYWQTSESKTVVTYHIPQRSSLEFVDSRYRNRALMSPAGMLRGDFSLRLFNVTPQDEQKFHCLVLSNSLGFQEVLSVEVTLHVAANFSVGSGGGGSEPKSSDKTHTCPPCPAPEAEGAPSVFLFPPKPKDTLMISRTPEVTCVVVDVSHEDPEVKFNWYVDGVEVHNAKTKPREEQYNSTYRVVSVLTVLHQDWLNGKEYKCKVSNKALPAPIEKTISKAKGQPREPQVYTLPPSREEMTKNQVSLTCLVKGFYPSDIAVEWESNGQPENNYKTTPPVLDSDGSFFLYSKLTVDKSRWQQGNVFSCSVMHEALHNHYTQKSLSLSPG
Binder B6 has an MFI [1] of 161000 MFI and an MFI [2] of 233000 MFI.

B7: variant ICOSL IgV-Fc fusion N52R/N57F/Q100P (Fc fusion)
chain: DTQEKEVRAMVGSDVELSCACPEGSRFDLNDVYVYWQTSESKTVVTYHIPQRSSLEFVDSRYRNRALMSPAGMLRGDFSLRLFNVTPQDEQKFHCLVLSPSLGFQEVLSVEVTLHVAANFSVGSGGGGSEPKSSDKTHTCPPCPAPEAEGAPSVFLFPPKPKDTLMISRTPEVTCVVVDVSHEDPEVKFNWYVDGVEVHNAKTKPREEQYNSTYRVVSVLTVLHQDWLNGKEYKCKVSNKALPAPIEKTISKAKGQPREPQVYTLPPSREEMTKNQVSLTCLVKGFYPSDIAVEWESNGQPENNYKTTPPVLDSDGSFFLYSKLTVDKSRWQQGNVFSCSVMHEALHNHYTQKSLSLSPG
With B7 the MFI [1] was 154000 MFI and the MFI [2] was 504000 MFI.

B8: variant ICOSL IgV-Fc fusion N52R/N57F/Q100R (Fc fusion)
chain: DTQEKEVRAMVGSDVELSCACPEGSRFDLNDVYVYWQTSESKTVVTYHIPQRSSLEFVDSRYRNRALMSPAGMLRGDFSLRLFNVTPQDEQKFHCLVLSRSLGFQEVLSVEVTLHVAANFSVGSGGGGSEPKSSDKTHTCPPCPAPEAEGAPSVFLFPPKPKDTLMISRTPEVTCVVVDVSHEDPEVKFNWYVDGVEVHNAKTKPREEQYNSTYRVVSVLTVLHQDWLNGKEYKCKVSNKALPAPIEKTISKAKGQPREPQVYTLPPSREEMTKNQVSLTCLVKGFYPSDIAVEWESNGQPENNYKTTPPVLDSDGSFFLYSKLTVDKSRWQQGNVFSCSVMHEALHNHYTQKSLSLSPG
With B8 the MFI [1] was 185000 MFI and the MFI [2] was 464000 MFI.

B9: variant ICOSL IgV-Fc fusion N52R/N57W (Fc fusion)
chain: DTQEKEVRAMVGSDVELSCACPEGSRFDLNDVYVYWQTSESKTVVTYHIPQRSSLEWVDSRYRNRALMSPAGMLRGDFSLRLFNVTPQDEQKFHCLVLSQSLGFQEVLSVEVTLHVAANFSVGSGGGGSEPKSSDKTHTCPPCPAPEAEGAPSVFLFPPKPKDTLMISRTPEVTCVVVDVSHEDPEVKFNWYVDGVEVHNAKTKPREEQYNSTYRVVSVLTVLHQDWLNGKEYKCKVSNKALPAPIEKTISKAKGQPREPQVYTLPPSREEMTKNQVSLTCLVKGFYPSDIAVEWESNGQPENNYKTTPPVLDSDGSFFLYSKLTVDKSRWQQGNVFSCSVMHEALHNHYTQKSLSLSPG
For B9, the MFI [1] was 137000 MFI and the MFI [2] was 318000 MFI.

B10: variant ICOSL IgV-Fc fusion N52R/N57Y/Q100P (Fc fusion)
chain: DTQEKEVRAMVGSDVELSCACPEGSRFDLNDVYVYWQTSESKTVVTYHIPQRSSLEYVDSRYRNRALMSPAGMLRGDFSLRLFNVTPQDEQKFHCLVLSPSLGFQEVLSVEVTLHVAANFSVGSGGGGSEPKSSDKTHTCPPCPAPEAEGAPSVFLFPPKPKDTLMISRTPEVTCVVVDVSHEDPEVKFNWYVDGVEVHNAKTKPREEQYNSTYRVVSVLTVLHQDWLNGKEYKCKVSNKALPAPIEKTISKAKGQPREPQVYTLPPSREEMTKNQVSLTCLVKGFYPSDIAVEWESNGQPENNYKTTPPVLDSDGSFFLYSKLTVDKSRWQQGNVFSCSVMHEALHNHYTQKSLSLSPG
Work on B10 yielded an MFI [1] of 133000 MFI and an MFI [2] of 502000 MFI.
